To fix the notation:
B1: HDV Ribozyme (parent)
chain: GGCCGGCAUGGUCCCAGCCUCCUCGCUGGCGCCGGCUGGGCAACAUUCCGAGGGGACCGUCCCCUCGGUAAUGGCGAAUGGGACCCA

This passage reports self-cleavage results from the RNAGym collection of RNA variant scans (doi:10.7554/elife.80360).

In this series the parent is B1. Nature of the series: self-cleavage, relative activity (ratio to wild type); higher = more cleavage; co-transcriptional.
As for C13A G81A, the self-cleavage is 0.16.

G5A G28U: the self-cleavage was 0.

As for U65C G68A, the self-cleavage stood at 0.959. For G5U G40A, the self-cleavage was 0.364. Turning to C49A A77C, the self-cleavage turned out to be 0.252.

Regarding G29C C86U, the self-cleavage was determined as 0.0739. With G53U, the self-cleavage stood at 1.01. Take G11A G31C: the self-cleavage came out at 0.0997.

For the variant G54A U79A, the self-cleavage is 0.465. C57U A78U: the self-cleavage worked out at 0.119.

Turning to C26G C66U, the self-cleavage stood at 1.16. Turning to G5C G67C, the self-cleavage came out at 0.252. For C4A G54C, the self-cleavage was 0.284.

For G17U C63G, the self-cleavage was determined as 0.509. To G59A A78G belongs 0.631. In the case of C30A C64G, the self-cleavage worked out at 0.485. Regarding G5U C36G, the self-cleavage was found to be 0.128. Consider U47A G76C, for which the self-cleavage was determined as 0.812. In the case of C30G G35C, the self-cleavage came out at 0.198. For the variant G1A G73C, the self-cleavage came out at 0.0739. To C33G G54U belongs 0.0426; to A8C G67A, 0.898; to U9C G59C, 1.09. To U9C A56U belongs 1.04; to G31U G54U, 0.369. For G6C G10U, the self-cleavage worked out at 0.0755.

As to G6C G10A, the self-cleavage was 0.147. In the case of G2U G73C, the self-cleavage came to 0. In the case of C44G A45U it was 0.776. On to C15U G59A, for which the self-cleavage came to 0.851. In the case of U47A C58A it was 0.957. Regarding G5U A83C, the self-cleavage was determined as 0.

As for C41A, the self-cleavage was 0.94. For the variant C57A U60G, the self-cleavage was 0.831. For the variant G38A A77C, the self-cleavage came to 0.0354. On to C32G A71C, for which the self-cleavage was found to be 0. In the case of A43U A77G, the self-cleavage came out at 0.277. Take U47C U72C: the self-cleavage was 0.712. With A16C G40A, the self-cleavage was 0.65.

In the case of G52U A87G, the self-cleavage came to 0.906. To C30U C84G belongs 0.306. Take G17C G40U: the self-cleavage was 0.196. On to C13G G40A, for which the self-cleavage came out at 0.119. On to C3A C57A, for which the self-cleavage was 0.659.

Consider C3A C57G, for which the self-cleavage was 0.587.

Take C64G G80U: the self-cleavage amounted to 0.443. As to C14A C22U, the self-cleavage is 0.181. To A8G C48G belongs 1.11; to C15U G80A, 0.992. To A16G G52C belongs 0.928; to C30U C57G, 0.683. For the variant G39U C61A, the self-cleavage is 0.589. C22G G82A: the self-cleavage is 0.0723. Take G39A A71G: the self-cleavage came out at 0.332. Take G34A G80C: the self-cleavage stood at 0.0819. Consider C33G C49G, for which the self-cleavage is 0.0978.

On to U60C C86U, for which the self-cleavage came to 0.88.

As to A8G C66G, the self-cleavage was determined as 0.969. Regarding G5C G38A, the self-cleavage is 0.199. Consider G52C G73U, for which the self-cleavage was determined as 0.415.

With A51C C75G, the self-cleavage turned out to be 0.415. In the case of U60G U72G it was 0.646; in that of A16G C85U, 0.969; in that of U79G A83G, 0.138.

For the variant U79G G81U, the self-cleavage amounted to 0.225. To G40C G59U belongs 0.326; to A8C G53C, 0.739. With G11U G52C, the self-cleavage was found to be 0.218. Take C7A C21U: the self-cleavage came out at 0. In the case of G1A A83U it was 0. As for C33A C84U, the self-cleavage worked out at 0.193. Turning to G52C G67U, the self-cleavage was 0.753.

For the variant C66G C85G, the self-cleavage is 0.969. With C3G C32U, the self-cleavage turned out to be 0.198. To C26G A42U belongs 0.449. For G34U A77G, the self-cleavage is 0.086. As to C18G G68C, the self-cleavage turned out to be 0.119. For C36G G55C, the self-cleavage is 0.0314.

Consider G10U G59C, for which the self-cleavage was found to be 0.857. On to C36U A56C, for which the self-cleavage was 0.888. In the case of U12C U37A it was 0.147; in that of G38U A43U, 0.0963. As to G6C C32U, the self-cleavage turned out to be 0.63.

In the case of G39A U65C, the self-cleavage was 0.463. Regarding G2A G68U, the self-cleavage came out at 0.0645. In the case of G6A C63A it was 0.407; in that of U46A U65A, 0.914; in that of G25U C36G, 0.108. On to C21G C24A, for which the self-cleavage was determined as 0.0437. Turning to A8G U12A, the self-cleavage was 0.

As to G35A C44G, the self-cleavage came out at 0.0639. As to G52A A78C, the self-cleavage came to 0.347. For A45U, the self-cleavage amounted to 0.832. G35A U47C: the self-cleavage is 0.489. To A42C C49A belongs 0.262; to U46G C58G, 0.89; to A8U G54U, 0.574. For A43C G73U, the self-cleavage was 0.604. As to U9A U60A, the self-cleavage was determined as 0.923. In the case of U20G G28U it was 0.0831. Take C18A G68C: the self-cleavage stood at 0.212. With G35C G68C, the self-cleavage is 0.356. With G17C C32A, the self-cleavage came out at 0. To C30U U37C belongs 0.906; to A71U U79C, 0.314.

For the variant U27A G35C, the self-cleavage stood at 0.201. In the case of A45C G73C, the self-cleavage worked out at 0.424. In the case of C30U A70C it was 0.525; in that of C4U G82U, 0.119. For C13G G54A, the self-cleavage was 0.0604.

With U12C C84U, the self-cleavage was 0.208. Regarding A16G G74U, the self-cleavage came to 0.494.

Consider G25A A51C, for which the self-cleavage came to 0.213.

U47C G52C: the self-cleavage was determined as 0.917.

Take C26G A43C: the self-cleavage is 0.437. Regarding C7U C24A, the self-cleavage worked out at 0.256. On to G1C G82C, for which the self-cleavage worked out at 0.0504. In the case of G25U A71U it was 0.0396; in that of C19U C61G, 0.176.

For G10A C64U, the self-cleavage is 0.661. Regarding G1C C14A, the self-cleavage amounted to 0.0811.

Take C7A U46C: the self-cleavage was 0.453. For the variant G34A G67C, the self-cleavage was 0.0707. Consider U46A A87G, for which the self-cleavage turned out to be 0.712. In the case of G34A U72C it was 0.0692; in that of C7A A42U, 0.108. With A43C G82A, the self-cleavage came to 0.185. As for A8C C19G, the self-cleavage turned out to be 0.115. Take U47G G80C: the self-cleavage was determined as 0.192. Turning to G31U A77G, the self-cleavage is 0.231. Take A78G A83U: the self-cleavage amounted to 0.0437. G17C C44G: the self-cleavage was determined as 0.0723. To C22G C44U belongs 0.0361; to C64A A71C, 0.277; to G59C G82C, 0.522. In the case of G5C A71U it was 0.18; in that of G5C C13A, 0.0755; in that of C13G A77C, 0.0615. To C24G A70U belongs 0.0627.

In the case of G28A C64A, the self-cleavage was found to be 0.121. Take C4G C58G: the self-cleavage was 0.289. To G10C A70U belongs 0.65; to C24A G50A, 0.688. Regarding U65C U72G, the self-cleavage turned out to be 0.831.

As to C26G C49G, the self-cleavage was 0.87. To U69C G74A belongs 0.554; to G39C C66G, 0.185; to G28A C85G, 0.0332.

Consider U9A C66A, for which the self-cleavage came to 0.95. To U27C G55C belongs 0.847. In the case of G17A G34A it was 0.117. In the case of U46G U60A it was 0.453. Turning to C32U C33U, the self-cleavage was 0.166.

In the case of G28A C57A, the self-cleavage is 0.0978. Take C13G C41A: the self-cleavage was determined as 0.0489.

Turning to C19G A87C, the self-cleavage worked out at 0.0849. In the case of C19G A87U it was 0.0839; in that of C4U C15U, 0.731; in that of G53U G74U, 0.701. Consider C7A C18G, for which the self-cleavage was determined as 0.

Turning to C26G U47A, the self-cleavage is 0.87. In the case of C26U C64A it was 0.979; in that of C48G A77G, 0.755; in that of G1A C3U, 0.297. In the case of U37A G40C it was 0.0519; in that of C61U G76A, 1.19. G1A C4A: the self-cleavage is 0.166.
